Positions count from the first letter of the chain named.
B1: MOR12514 (antibody, human IgG1, lambda, V domains shown)
VH: QVQLVQSGAEVKKPGASVKVSCKASGYTFTSYDIHWVRQAPGQGLEWMGRIDPYSGNTNYAQKFQGRVTMTRDTSISTAYMELSRLRSEDTAVYYCARGSFYTRDSYFDVWGQGTLVTVSS
VL: DIALTQPASVSGSPGQSITISCTGTSSDVGTYNQVSWYQQHPGKAPKLMIYGVSKRPSGVSNRFSGSKSGNTASLTISGLQAEDEADYYCQVRDMSLFDVFGGGTKLTVLG
notes: Tested as IgG
B2: MOR12515 (antibody, human IgG1, lambda, V domains shown)
VH: B1 VH
VL: B1 VL with Q91Y, V92S, M95S, S96P, L97M, F98D, D99Q
notes: Tested as IgG
B3: MOR12921 (antibody, human IgG1, lambda, V domains shown)
VH: B1 VH with S31G, D33Y, I34M, R50D, Y54H, T58A, N59V
VL: B1 VL with Q91S, V92S, M95L, S96I, L97G, F98H, D99Y
notes: Tested as IgG
B4: MOR13666 (antibody, human IgG1, lambda, V domains shown)
VH: B1 VH
VL: B1 VL with Q91S, V92T, R93T, D94T, M95Y, L97F, F98H, D99M
notes: Tested as IgG
B5: MOR12516 (antibody, human IgG1, lambda, V domains shown)
VH: B1 VH
VL: DIALTQPASVSGSPGQSITISCTGTSSDVGTYNQVSWYQQHPGKAPKLMIYGVSKRPSGVSNRFSGSKSGNTASLTISGLQAEDEADYYCQSRDTYRPVKVFGGGTKLTVLG
notes: Tested as IgG
B6: MOR12603 (antibody, human IgG1, kappa, V domains shown)
VH: QVQLVQSGAEVKKPGSSVKVSCKASGGTFSSYAISWVRQAPGQGLEWMGLIIPRYGKARYAQKFQGRVTITADESTSTAYMELSSLRSEDTAVYYCARNWPYYYMDFWGQGTLVTVSS
VL: DIVLTQSPATLSLSPGERATLSCRASQNIVFNLAWYQQKPGQAPRLLIYDASNRATGVPARFSGSGSGTDFTLTISSLEPEDFAVYYCQQTKNRPPTFGQGTKVEIKR
notes: Tested as IgG
B7: MOR12605 (antibody, human IgG1, kappa, V domains shown)
VH: B6 VH
VL: B6 VL with T91F, K92R, N93R, R94K, P95S, P96N
notes: Tested as IgG
B8: MOR13655 (antibody, human IgG1, lambda, V domains shown)
VH: B1 VH
VL: B5 VL with Q91S, R93A, D94T, T95Q, Y96K, R97P, P98D, K100T
notes: Tested as IgG
B9: MOR13654 (antibody, human IgG1, lambda, V domains shown)
VH: B1 VH
VL: B5 VL with D94G, T95E, V99G, K100W
notes: Tested as IgG

molecular target: T1, human HER3 endogenously expressed on human cancer cells (SK-Br-3, BT-474, MCF7) (human, UniProt P21860 20-1342); assay: cell-based or functional assay

| Binder | MCF7 proliferation % inhibition | MCF7 proliferation IC50 | SK-Br-3 proliferation % inhibition | SK-Br-3 proliferation IC50 | BT-474 proliferation % inhibition | BT-474 proliferation IC50 |
| --- | --- | --- | --- | --- | --- | --- |
| B1 | 29% | 317 pM | 36% | 44 pM |  |  |
| B2 | 26% | 1090 pM | 36% | 278 pM |  |  |
| B3 | 31% | 2310 pM | 42% | 432 pM |  |  |
| B4 |  |  | 39% | 870 pM | 31% | 1120 pM |
| B5 | 34% | 492 pM | 34% | 2080 pM |  |  |
| B6 | 44% | 58 pM | 36% | 34 pM | 37% | 136 pM |
| B7 | 45% | 28 pM | 29% | 0.01 pM |  |  |
| B8 | 46% | 86 pM | 39% | 74 pM | 31% | 141 pM |
| B9 |  |  | 34% | 136 pM | 27% | 632 pM |

molecular target: T1, human HER3 endogenously expressed on …; assay: cell-based or functional assay; remark: another data set of the same source

| Binder | BT474 pHER3 % inhibition | BT474 pHER3 IC50 | MCF7 pHER3 % inhibition | MCF7 pHER3 IC50 | SK-Br-3 pHER3 % inhibition | SK-Br-3 pHER3 IC50 |
| --- | --- | --- | --- | --- | --- | --- |
| B1 | 70% | 707 pM | 67% | 435 pM | 77% | 223 pM |
| B2 | 71% | 365 pM | 71% | 674 pM | 76% | 278 pM |
| B3 | 65% | 418 pM | 79% | 1230 pM | 68% | 252 pM |
| B4 | 65% | 420 pM | 73% | 168 pM | 69% | 166 pM |
| B5 | 63% |  | 62% | 590 pM | 74% | 1870 pM |
| B6 | 70% | 79 pM | 77% | 11 pM | 74% | 18 pM |
| B7 | 64% | 1490 pM | 89% | 318 pM | 73% | 7 pM |
| B8 | 61% | 19 pM | 80% | 149 pM | 69% | 90 pM |
| B9 | 61% | 195 pM | 77% | 331 pM | 69% | 182 pM |

molecular target: T1, human HER3 endogenously expressed on …; assay: cell-based or functional assay; remark: another data set of the same source

| Binder | BT-474 pAkt % inhibition | BT-474 pAkt IC50 | MCF7 pAkt % inhibition | MCF7 pAkt IC50 | SK-Br-3 pAkt % inhibition | SK-Br-3 pAkt IC50 |
| --- | --- | --- | --- | --- | --- | --- |
| B4 | 50% | 275 pM | 72% | 49 pM | 90% | 78 pM |
| B6 | 77% | 137 pM |  |  | 84% | 17 pM |
| B7 | 67% | 173 pM | 76% | 533 pM | 84% | 140 pM |
| B8 | 50% |  | 79% | 251 pM | 86% | 62 pM |
| B9 | 58% | 142 pM | 72% | 244 pM | 92% | 89 pM |

molecular target: T2, Hu HER3: CD33-[Human HER3, residues 20-640]-TAG (human, UniProt P21860 20-640); assay: solution equilibrium titration (SET), IgG, ECL read-out
T2 construct: also called hu HER3-Tag; HER3-Tag; not shown: C-terminal TAG (e.g. FLAG TAG)

| Binder | Kd |
| --- | --- |
| B1 | 0.97 nM |
| B2 | 0.87 nM |
| B3 | 0.15 nM |
| B4 | 0.15 nM |
| B5 | 1.8 nM |
| B6 | 2 nM |
| B7 | 1.8 nM |
| B8 | 0.066 nM |
| B9 | 0.11 nM |

molecular target: T3, Rat HER3: CD33-[Rat HER3, residues 20-643]-TAG (rat, UniProt Q62799 20-643); assay: as above
T3 construct: also called ra HER3-Tag; not shown: C-terminal TAG (e.g. FLAG TAG)

| Binder | Kd |
| --- | --- |
| B3 | 0.69 nM |
| B6 | 11 nM |
| B7 | 9.6 nM |

molecular target: T4, Mu HER3: CD33-[Murine HER3, residues 20-643]-TAG (mouse, UniProt Q61526 20-643); assay: as above
T4 construct: also called mu HER3-Tag; not shown: C-terminal TAG (e.g. FLAG TAG)

| Binder | Kd |
| --- | --- |
| B1 | 2.4 nM |
| B2 | 1.5 nM |
| B3 | 0.56 nM |
| B5 | 3.9 nM |
| B6 | 4.1 nM |
| B7 | 2.3 nM |

molecular target: T5, Cyno HER3: CD33-[Cyno HER3, residues 20-643]-TAG (cynomolgus monkey, UniProt G7PIG5 20-643); assay: as above
T5 construct: also called cy HER3-Tag; not shown: C-terminal TAG (e.g. FLAG TAG)

| Binder | Kd |
| --- | --- |
| B1 | 1.4 nM |
| B2 | 0.72 nM |
| B3 | 0.6 nM |
| B5 | 3.6 nM |
| B6 | 6.1 nM |
| B7 | 2.9 nM |

Source: US20130251703A1 (Novartis, published 2013)
